Consider one substance from article doi:10.1101/2025.10.06.680090.

As a reminder, the Kd is a measure of binding affinity in units of concentration. Higher therefore signals a looser complex.

The target in the assay is HAdV-C5 capsid (replication-defective, E1-deleted vector HAdV-C5-GFP) (human adenovirus type C5). Description: SPR.

“recombinant human langerin protein (hCD207) (from UniProt Q9UJ71 1-328) (receptor)” displayed a Kd of 0.039 µM.
